{
  "source": "paper PMC2773841",
  "origin": "cited, not measured here",
  "molecular_target": "DnaK (Escherichia coli) (UniProt P0A6Y8)",
  "sequence (P0A6Y8 2-638)": "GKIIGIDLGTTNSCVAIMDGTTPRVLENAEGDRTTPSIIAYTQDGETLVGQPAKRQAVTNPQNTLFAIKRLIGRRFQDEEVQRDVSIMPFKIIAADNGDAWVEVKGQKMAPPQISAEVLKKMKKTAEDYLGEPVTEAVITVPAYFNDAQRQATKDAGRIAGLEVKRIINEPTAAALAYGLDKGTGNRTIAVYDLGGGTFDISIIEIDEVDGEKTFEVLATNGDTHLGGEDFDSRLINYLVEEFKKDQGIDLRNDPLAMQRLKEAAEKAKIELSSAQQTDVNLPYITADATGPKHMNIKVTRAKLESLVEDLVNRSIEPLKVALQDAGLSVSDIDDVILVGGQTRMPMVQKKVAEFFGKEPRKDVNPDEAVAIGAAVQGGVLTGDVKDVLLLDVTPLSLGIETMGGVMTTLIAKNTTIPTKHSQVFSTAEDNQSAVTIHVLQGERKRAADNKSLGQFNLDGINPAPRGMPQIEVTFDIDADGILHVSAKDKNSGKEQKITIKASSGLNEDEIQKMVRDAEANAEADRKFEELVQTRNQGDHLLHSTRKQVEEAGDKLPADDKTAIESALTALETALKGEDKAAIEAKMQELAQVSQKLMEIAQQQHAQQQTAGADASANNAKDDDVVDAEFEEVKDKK",
  "data": [
    {"substance": "GrpE (from UniProt P09372)", "values": [
      {"measurement": "Kd", "result": 1, "unit": "nM"}
    ]}
  ]
}
